According to patent US20220112288A1 (published 2022):
Positions count from the first letter of the chain named.

B1: 75110_06D16A (antibody, V domains shown)
VH: QVQLQQWGAGLLKPSETLSLTCAVYGGSFSGYYWSWIRQPPGKGLEWIGEINHSGSTNYNPSLKSRVTISVVTSKNQFSLKLSSVTAADTAVYYCARVLNWFDPWGQGTLVTVSS
VL: DIQMTQSPSSVSASVGDRVTITCRASQDIADWLAWYQQKPGKAPKLLIYAASSFQSGVPSRFSGSGSGTDFTLTISSLQPEDFATYFCQQANSFPYTFGQGTKLEIK
notes: Tested as non-clonal AlivaMab Mouse Kappa hybridoma supernatant: human variable domains and human kappa, mouse Fc (detected with anti-mouse Fc)
B2: 75110_13P21A (antibody, IgG1, V domains shown)
VH: B1 VH with Y25S, Y59C, V72D, K75N, W101Y, P104Y
VL: B1 VL with Q27P, D31N, K45E, F54L, Y96L, Q100G, L104V, I106S
notes: Tested as non-clonal AlivaMab Mouse Kappa hybridoma supernatant: human variable domains and human kappa, mouse Fc
B3: 75110_12K21A (antibody, V domains shown)
VH: B1 VH with Y25S, Y59C, V72D, K75N, W101Y, P104Y
VL: B1 VL with Q27P, D31N, K45E, F54L, Y96L, Q100G, L104V, I106S
notes: as for B2
B4: 75110_12C19A (antibody, IgG1, V domains shown)
VH: EVQLVESGGGLVQPGGSLRLSCAASGFTFSSYWMSWVRQAPGKGLEWVANIKEDGSDKYYVDSVKGRFTISRDNAKNSLYLQMNSLRAEDTAVHYCVREGGQWLALDYWGQGTLVTVSS
VL: B1 VL with A13G, D28G, A30S, D31S, A50G, F54L, A84V, F87Y, Y96W, L104V
notes: as for B2
B5: 75110_13P22A (antibody, IgG1, V domains shown)
VH: B1 VH with V24A, P40S, H53Q, S56N, V71A, V72D, P104Y, T109I
VL: B1 VL with D28G, A30S, P40S, K45D, Y49F, F54L, F87Y
notes: as for B2
B6: 75110_07B16A (antibody, IgG1, V domains shown)
VH: B1 VH with P40S, H53Q, V72D, N76D, L99I, P104S, T109S
VL: B1 VL with D28G, A30S, D31S, A50D, P80T, E81D, F87Y
notes: as for B2
B7: 75110_13C13A (antibody, IgG1, V domains shown)
VH: B1 VH with Y25S, Y59C, V72D, V92M, W101F, P104Y
VL: DIQMTQTPSSVSASVGDRVTITCRASPGISNWLAWYQQKPGKAPELLIYAASSLQSGVPSRFSGSGSGTDFTLTISSLQPEDFATYFCQQANSFPLTFGGGTKVESK
notes: as for B2
B8: 75110_04F22A (antibody, V domains shown)
VH: EVQLVESGGGLVQPGGSLRLSCAASGFTFSSYDIHWVRQATGKGLEWVSTIGTAGDTYYPGSVKGRFTISRENAKNSLYLQMNSLRAGDTAVYYCARGGYYYYGMDVWGQGTTVTVSS
VL: EIVLTQSPGTLSLSPGERATLSCRASQSVYSSYLAWYQQKPGQAPRLLIYGASSRATGIPDRFSGSGSGTDFTLTISRLEPEDFAVYYCQQFGTSPFTFGPGTKVDIK
notes: as for B2
B9: 75110_01G11A (antibody, IgG1, V domains shown)
VH: B8 VH with I34M, K75R, Y79F, Y100D
VL: B8 VL with S14F, S28N, V29T, S54N, F92H
notes: as for B2
B10: 75110_01J17A (antibody, IgG1, V domains shown)
VH: B8 VH with I34M, A40G, G55D, K75E, Y100D
VL: B8 VL with T5A, S31I, S77T, T94S, I107F
notes: as for B2

biological target: T1, human CD4 on cells (SKW3 cells; human PBMCs) (human, UniProt P01730 26-458); assay: FACS primary screen, non-clonal hybridoma supernatant, SKW3 vs SKW3 CD4 knockout cells, anti-mouse Fc A647
T1 construct: whole, on cells; SKW3 CD4 knockout cells served as the negative cell line; also called hCD4

Binder | SKW3 WT vs KO anti-mFc-647
B1 | 4 fold
B2 | 5.8 fold
B3 | 6.6 fold
B4 | 7.2 fold
B5 | 6.4 fold
B6 | 11.4 fold
B7 | 6.8 fold
B8 | 3.6 fold
B9 | 3.4 fold
B10 | 4.3 fold

biological target: T1, human CD4 on cells (SKW3 cells; human …); assay: FACS confirmation, supernatant on SKW3 WT cells, anti-mouse Fc 647; background gMFI 3300

Binder | SKW3 WT anti-mFc 647, gMFI
B1 | 41300 gMFI
B2 | 30900 gMFI
B3 | 25000 gMFI
B4 | 29300 gMFI
B5 | 18200 gMFI
B6 | 30800 gMFI
B7 | 23900 gMFI
B8 | 26900 gMFI
B9 | 19200 gMFI
B10 | 31600 gMFI

biological target: T1, human CD4 on cells (SKW3 cells; human …); assay: FACS binning on SKW3 cells pre-incubated with supernatant; competitor OKT4-A488, its signal read; background 2163, max binding 8200

Binder | SKW3 FACS Binning OKT4 A488
B1 | 9980
B2 | 9420
B3 | 10000
B4 | 9580
B5 | 9370
B6 | 9280
B7 | 9760
B8 | 9940
B9 | 10100
B10 | 10000

biological target: T1, human CD4 on cells (SKW3 cells; human …); assay: FACS binning on SKW3 cells pre-incubated with supernatant; competitor OKT4a read with anti-human A647 secondary; background 5000, max binding 35000

Binder | SKW3 FACS Binning OKT4a anti-hu A647 Secondary
B1 | 5800
B2 | 6870
B3 | 8240
B4 | 7140
B5 | 6220
B6 | 5320
B7 | 5500
B8 | 40200
B9 | 30100
B10 | 37700

biological target: T1, human CD4 on cells (SKW3 cells; human …); assay: FACS primary screen, non-clonal hybridoma supernatant, SKW3 vs SKW3 CD4 knockout cells, anti-human kappa FITC

Binder | SKW3 WT vs KO anti-hKappa-FITC
B1 | 2.5 fold
B2 | 2.4 fold
B3 | 2.8 fold
B4 | 2.3 fold
B5 | 2.8 fold
B6 | 3 fold
B7 | 3.1 fold
B8 | 1.8 fold
B9 | 2 fold
B10 | 2.1 fold

biological target: T1, human CD4 on cells (SKW3 cells; human …); assay: FACS confirmation, supernatant on human PBMCs, anti-mouse Fc 647, CD4+ gate

Binder | PBMCs, anti-mFc 647 CD4+ gate - RL1 Binding
B1 | 216000
B2 | 274000
B3 | 335000
B4 | 341000
B5 | 215000
B6 | 274000
B7 | 99600
B8 | 286000
B9 | 244000
B10 | 280000

biological target: T1, human CD4 on cells (SKW3 cells; human …); assay: FACS confirmation, supernatant on human PBMCs, anti-mouse Fc 647, CD4+ percent of viable cells

Binder | PBMCs, anti-mFc 647 CD4+ Percent Bound of Viable
B1 | 29%
B2 | 31%
B3 | 30%
B4 | 31%
B5 | 27%
B6 | 29%
B7 | 6%
B8 | 32%
B9 | 30%
B10 | 32%

biological target: T2, huCD4-HIS (human, UniProt P01730 26-390, limits assumed); assay: ELISA binning, competitor Ibalizumab; 100 ng/mL huCD4-HIS, anti-HIS HRP detection; background 45, max binding 3000000
T2 construct: the ELISA binning is not described in the text of this stretch

Binder | Ibalizumab ELISA binning signal
B1 | 1.27e+06
B2 | 678000
B3 | 1.41e+06
B4 | 1.51e+06
B5 | 1.16e+06
B6 | 1.31e+06
B7 | 1.17e+06
B8 | 748000
B9 | 495000
B10 | 755000

biological target: T1, human CD4 on cells (SKW3 cells; human …); assay: FACS confirmation, supernatant on SKW3 WT cells, anti-human kappa FITC; background gMFI 2500

Binder | SKW3 WT anti-hu Kappa FITC, gMFI
B1 | 8670 gMFI
B2 | 7580 gMFI
B3 | 5620 gMFI
B4 | 6850 gMFI
B5 | 5910 gMFI
B6 | 7220 gMFI
B7 | 7240 gMFI
B8 | 5580 gMFI
B9 | 5000 gMFI
B10 | 5780 gMFI

biological target: T1, human CD4 on cells (SKW3 cells; human …); assay: FACS binning on SKW3 cells pre-incubated with supernatant; competitor RPA-T4-PE-Dazzle 594, its signal read; background 783, max binding 15000

Binder | SKW3 FACS Binning RPA-T4-PE-Dazzle 594
B1 | 21300
B2 | 11900
B3 | 10900
B4 | 11900
B5 | 19000
B6 | 20600
B7 | 20800
B8 | 2290
B9 | 2160
B10 | 1950
